Data taken from publication PMC13482807.

Molecular target: Microtubule star (Mts) L186A (Drosophila) (UniProt P23696)
Test: co-IP; S2 cells transfected with the tagged constructs; lysis in 50 mM Tris pH 7.5, 150 mM NaCl, 1% Triton X-100, 10% glycerol, 1 mM EDTA with phosphatase and protease inhibitors; FLAG-tagged proteins on anti-FLAG M2 agarose 1-2 h at 4 °C, eluted with 3x FLAG peptide; immunoblot (Figures EV3G,H, EV5C-E, 5B-D)

Sequence of UniProt P23696 (P23696 whole entry L186A): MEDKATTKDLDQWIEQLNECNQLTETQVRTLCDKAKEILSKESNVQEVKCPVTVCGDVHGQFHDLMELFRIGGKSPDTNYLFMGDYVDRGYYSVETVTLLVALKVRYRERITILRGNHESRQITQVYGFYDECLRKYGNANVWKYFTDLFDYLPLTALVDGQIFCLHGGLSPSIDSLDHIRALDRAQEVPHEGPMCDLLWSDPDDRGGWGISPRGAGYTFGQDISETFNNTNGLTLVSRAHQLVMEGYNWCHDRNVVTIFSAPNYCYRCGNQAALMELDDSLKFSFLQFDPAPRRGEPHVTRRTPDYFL

reduction of binding relative to Mts^WT: 50%
Substance: Connector of kinase to AP-1 (Cka), PP2A B''' regulatory subunit (natural protein)
